# Assay results taken from patent US7749968B2, “Peptides for targeting the prostate specific membrane antigen” (The Johns Hopkins University, priority 2002, dated 2010).
# How the values were obtained:
# xPSM [1] = biological target: T1, xPSM (Homo sapiens, UniProt Q04609); assay: NAAG hydrolysis (NAALADase) assay with purified xPSM; type: biochemical; details: 1, 10 and 100 micromolar; 30 nM NAAG substrate, 37° C., 10 minutes
# T1 construct: Purified human xPSM (the extracellular portion of human PSMA); S-tag (cleaved yes); made in house; host or cells: Sf-9 insect cells infected with recombinant baculovirus; released from S-protein agarose by enterokinase
# T1 sequence (Q04609 44-750 limits assumed): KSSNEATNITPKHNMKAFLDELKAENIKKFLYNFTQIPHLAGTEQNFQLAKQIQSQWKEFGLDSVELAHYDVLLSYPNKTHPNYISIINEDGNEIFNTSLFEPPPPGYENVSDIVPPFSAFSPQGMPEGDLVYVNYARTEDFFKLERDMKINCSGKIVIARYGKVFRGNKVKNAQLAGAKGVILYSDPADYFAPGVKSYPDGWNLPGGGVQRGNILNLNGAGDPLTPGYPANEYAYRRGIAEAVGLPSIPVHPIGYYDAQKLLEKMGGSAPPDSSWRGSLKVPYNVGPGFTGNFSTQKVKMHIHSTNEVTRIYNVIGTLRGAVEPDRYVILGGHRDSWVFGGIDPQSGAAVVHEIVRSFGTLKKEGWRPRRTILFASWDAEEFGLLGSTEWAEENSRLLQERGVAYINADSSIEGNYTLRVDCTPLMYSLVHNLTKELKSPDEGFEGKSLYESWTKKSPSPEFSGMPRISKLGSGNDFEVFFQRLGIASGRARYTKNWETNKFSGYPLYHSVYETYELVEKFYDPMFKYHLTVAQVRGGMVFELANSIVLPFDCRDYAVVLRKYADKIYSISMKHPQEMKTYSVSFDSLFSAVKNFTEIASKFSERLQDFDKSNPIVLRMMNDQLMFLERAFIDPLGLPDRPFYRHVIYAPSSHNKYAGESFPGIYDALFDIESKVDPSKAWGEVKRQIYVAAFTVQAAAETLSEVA
# Description: In another embodiment, the peptide compounds of the invention specifically enhance the enzymatic activity of PSMA. In another embodiment, peptide compounds of the invention may inhibit PSMA activity. Accordingly, the invention provides a method for assaying peptide compounds for the ability to modulate the activity of PSMA. This method is described in detail in Robinson, M. B. et al. (1987) J. Biol. Chem. 262:14498-506, incorporated herein by reference, as well as in Example 6 herein. Purified human xPSM (the extracellular portion of human PSMA) is incubated with a radiolabeled substrate, N-acetyl-L-aspartyl-L-[3,4-^3H]glutamate, plus the peptide compound being tested. Hydrolyzed substrate is then separated from intact substrate (e.g., by anion exchange chromatography) and quantitated to determine whether the test peptide compound was able to modulate PSMA activity.
# N-acetyl-aspartyl-glutamate (NAAG) hydrolysis was performed essentially as previously described (Robinson, M. B. et al. (1987) J. Biol. Chem. 262:14498-506, incorporated herein by reference). In short, 65 ng purified xPSM was resuspended in NAALADase Buffer (50 mM Tris, pH 7.4, 0.5% Triton X-100) and incubated in the presence of peptides or inhibitors (1, 10, and 100 micromolar), along with the radiolabeled substrate N-acetyl-L-aspartyl-L-[3,4-^3H]glutamate (NEN Life Science Products, Boston, Mass.) at 30 nM. Reactions were run at 37° C. for 10 minutes. The reaction was then stopped by the addition of an equal volume of ice-cold 100 mM sodium phosphate, 2 mM EDTA. Products were separated from intact substrate using AG 1-X8 Formate resin (BioRad Laboratories, Hercules, Calif.) anion exchange chromatography. The reaction product, tritiated-glutamate, was eluted with 1M sodium formate and quantitated by scintillation counting. Intact NAAG remained in the column resin. Experiments were completed in triplicate and have been repeated. The data represents six data points from two experiments. Experiments were designed to allow 20% or less of the total substrate to be cleaved.
# xPSM [2] = biological target: T1, xPSM; assay: Final phage display round on xPSM bound to microtiter plates; type: binding
# Description: In addition to phage library partitioning by cell binding, a final round of binding was completed on xPSM (Tag-xPSM digested with enterokinase) bound to plastic microtiter plates. This final round was used to ensure that those peptides identified in the LNCaP screen were targeting PSMA and not another unknown surface protein.
# Multiple individual phage from rounds three of LNCaP binding and the final round of xPSM binding were isolated, amplified, and sequenced. […] Two sequences are highly represented and are found in both cell and purified protein backgrounds.
# Tag-xPSM [3] = biological target: T2, Tag-xPSM (Homo sapiens, UniProt Q04609); assay: Stringent Tag-xPSM phage display, round 4 acid elution pool; type: binding; details: pH 2.2 pool
# T2 construct: made in house; host or cells: Sf-9 insect cells infected with recombinant baculovirus; protein harvested from the media
# T2 sequence (Q04609 44-750 limits assumed): as above
# Protocol: As described above in Example 1, Tag-xPSM was used as a target for the in vitro selection of a commercially available cysteine-constrained heptapeptide phage library. For the initial round, 14 micrograms of S-protein-agarose immobilized Tag-xPSM was incubated with 2×10^11 PFU for 30 minutes at room temperature while rotating. Weakly bound phage were then washed off with three 5 minute rotating washes. One phage pool, referred to herein as the “pH 2.2 pool”, was eluted for ten minutes in pH 2.2 glycine buffer followed by neutralization in Tris buffer. Those phage still bound to Tag-xPSM were then eluted for one hour in 30 mM EDTA-Tris buffer. This pool is referred to herein as the “EDTA pool”. These two pools where then carried separately for the next three rounds. Stringency was increased in each round by changing Tag-xPSM substrate background, decreasing binding time, or increasing washing time (Table 3).
# Twelve individual phage from each elution condition for rounds two, three, and four of Tag-xPSM phage display were isolated, amplified, and sequenced. All clones sequenced from rounds 2 and 3 were unique (Tables 4 and 5).
# Tag-xPSM [4] = biological target: T2, Tag-xPSM; assay: Tag-xPSM phage display selection (agarose/cellulose), sequencing of selected phage; type: binding
# Protocol: 100 μl of S-protein agarose (2× in RPMI 1640+1% Fetal Bovine Serum (FBS) and 100 μl of CBind Resin (10 mg/ml in RPMI 1640+1% FBS) without fusion protein were used to negatively select the original phage display library. 2×10^11 plaque forming units (PFU) of 1.29×10^9 different sequence phage were incubated with each aliquot of resin for 1 hr at 37° C., while rotating. The S-tag agarose was pelleted and supernatant saved as the agarose counter-selected pool. The cellulose resin was transferred onto 200 μl of 9:1 dibutyl phthalate:cyclohexane and the resin pelleted through the organic phase. The aqueous supernatant was saved as the cellulose counter-selected pool. Each counter selected pool was then added to tag-xPSM agarose or cellulose resin and incubated for 1 hr at 37° C., while rotating. The tag-xPSM agarose was pelleted and washed three times in RPMI 1640+1% FBS. The agarose pellet was then saved for phage isolation. The Tag-xPSM cellulose was transferred onto 200 μl of 9:1 dibutyl phthalate:cyclohexane and the resin pelleted through the organic phase. The tube was then snap frozen in liquid nitrogen to isolate the resin pellet. Over 75% of Tag-xPSM remained bound to the cellulose resin through these conditions. The resulting phage-bound tag-xPSM agarose and tag-xPSM cellulose were then resuspended in 200 μl of log phage ER2738 cells and phage allowed to infect 1 hour at room temperature. A small aliquot was taken at this time to quantitate the number of phage bound per round of selection. The remaining PSMA bound phage was then amplified, tittered, and applied to the next round of phage display. There was only one counter-selection round, followed by a total of five positive selection rounds, applying between 10^10 to 10^11 PFU per round. The final round of selection included cross-selections, where selected phage pools from one PSMA background where applied to the other. Individual phage were isolated and sequenced from rounds three through five.
# Individual phage plaques were amplified for 5 hours in ER2738 cells at 37° C. Amplified supernatant was incubated 1:1 with PEG/NaCl buffer (20% PEG 8000, 2.5 M NaCl) for 10 minutes at room temperature. Phage were microfuged 10 minutes at 20,000 g, 4° C. The phage pellet was suspended in 100 μl Iodide buffer (10 mM Tris-HCl, pH 8.0, 1 mM EDTA, 4M NaI). Single stranded DNA (ssDNA) was precipitated with 250 μl of 100% ethanol, pelleted, and washed in 70% ethanol. Each ssDNA pellet was suspended in 30 μl 10 mM Tris, pH 7.4. Each phage was sequenced using the Amersham DYE ET mix, by incubating 6 μl ssDNA, 1 μl of 5 μM-96 pill Sequencing Primer ([…]; SEQ ID NO:108), and 8 μl of DYE ET mix in a 96 well PCR plate and amplified by 30 cycles of 95° C. for 20 seconds, 50° C. for 15 seconds, and 60° C. for 1 minute. Sequencing reaction products were spun through G50-fine Sephadex column plates, prepared on Millipore-multiscreen plates. Products were sequenced and analyzed on the MegaBACE capillary sequencer. All sequences, minus the flanking cysteines, were aligned using the Baylor College of Medicine Clustal W1.8 Global Progressive Alignment (available online) with data presented by Boxshade 3.21 software (available online through the Swiss Institute for Bioinformatics).
# 2×10^11 plaque-forming units (PFU) of the library was incubated with each aliquot of resin for one hour at 37° C., while rotating. The S-tag agarose was pelleted and the supernatant saved as the agarose counter-selected pool. The cellulose resin was transferred onto a 9:1 ratio of dibutyl phthalate:cyclohexane and the resin centrifuged through the organic phase. The aqueous supernatant was saved as the cellulose counter-selected pool. Each counter selected pool was then added to tag-xPSM agarose or cellulose resin, respectively, and incubated for one hour at 37° C., while rotating (see FIG. 2). The Tag-xPSM agarose was pelleted, washed, and saved for phage isolation. […]
molecule,measurement,setting,value
"N[C@@H](Cn1oc(=O)[nH]c1=O)C(=O)O [quisqualic acid, reference compound]",Effect on PSMA enzymatic activity,xPSM [1],inhibited
CERNTYRFC [SEQ ID NO:33],"Number of times sequence was found, Round 1 xPSM",xPSM [2],0
CGSAARNWC [SEQ ID NO:32],"Number of times sequence was found, Round 1 xPSM",xPSM [2],0
CKSGEVNYC [SEQ ID NO:34],"Number of times sequence was found, Round 1 xPSM",xPSM [2],0
CLAAPTGKC [SEQ ID NO:30],"Number of times sequence was found, Round 1 xPSM",xPSM [2],12
CLNTAPLAC [SEQ ID NO:60],Share of the round 4 acid elution pool,Tag-xPSM [3],83%
CNKAALGTC [SEQ ID NO:31],"Number of times sequence was found, Round 1 xPSM",xPSM [2],1
CPQPASRQC [SEQ ID NO:36],"Number of times sequence was found, Round 1 xPSM",xPSM [2],1
CQKHHNYLC [SEQ ID NO:1],Effect on PSMA enzymatic activity,xPSM [1],enhanced
same,"Number of times sequence was found, Round 3",Tag-xPSM [4]; Agarose,0/0
same,"Number of times sequence was found, Round 4",Tag-xPSM [4]; Agarose,0/0
same,"Number of times sequence was found, Round 5",Tag-xPSM [4]; Agarose,0
same,"Number of times sequence was found, Round 3",Tag-xPSM [4]; Cellulose,0/0
same,"Number of times sequence was found, Round 4",Tag-xPSM [4]; Cellulose,0/0
same,"Number of times sequence was found, Round 5","Tag-xPSM [4]; asterisk: cross-selected, agarose pool selected on cellulose (final resin)",12
CSSHSTVHC [SEQ ID NO:7],"Number of times sequence was found, Round 3",Tag-xPSM [4]; Agarose,0/0
same,"Number of times sequence was found, Round 4",Tag-xPSM [4]; Agarose,0/0
same,"Number of times sequence was found, Round 5",Tag-xPSM [4]; Agarose,0
same,"Number of times sequence was found, Round 3",Tag-xPSM [4]; Cellulose,0/0
same,"Number of times sequence was found, Round 4",Tag-xPSM [4]; Cellulose,0/0
same,"Number of times sequence was found, Round 5",Tag-xPSM [4]; Cellulose,1
CSTRAPHLC [SEQ ID NO:5],"Number of times sequence was found, Round 3",Tag-xPSM [4]; Agarose,0/0
same,"Number of times sequence was found, Round 4",Tag-xPSM [4]; Agarose,0/0
same,"Number of times sequence was found, Round 5",Tag-xPSM [4]; Agarose,0
same,"Number of times sequence was found, Round 3",Tag-xPSM [4]; Cellulose,0/0
same,"Number of times sequence was found, Round 4",Tag-xPSM [4]; Cellulose,0/0
same,"Number of times sequence was found, Round 5",Tag-xPSM [4]; Cellulose,1
CTITSKRTC [SEQ ID NO:2],"Number of times sequence was found, Round 3",Tag-xPSM [4]; Agarose,0
same,"Number of times sequence was found, Round 4",Tag-xPSM [4]; Agarose,3/3
same,"Number of times sequence was found, Round 5",Tag-xPSM [4]; Agarose,0
same,"Number of times sequence was found, Round 3",Tag-xPSM [4]; Cellulose,1
same,"Number of times sequence was found, Round 4",Tag-xPSM [4]; Cellulose,3/3
same,"Number of times sequence was found, Round 5",Tag-xPSM [4]; Cellulose,3
CTLVPHTRC [SEQ ID NO:3],Effect on PSMA enzymatic activity,xPSM [1],enhanced
same,"Number of times sequence was found, Round 3",Tag-xPSM [4]; Agarose,0/0
same,"Number of times sequence was found, Round 4",Tag-xPSM [4]; Agarose,13/13
same,"Number of times sequence was found, Round 5",Tag-xPSM [4]; Agarose,0
same,"Number of times sequence was found, Round 3",Tag-xPSM [4]; Cellulose,0/0
same,"Number of times sequence was found, Round 4",Tag-xPSM [4]; Cellulose,13/13
same,"Number of times sequence was found, Round 5",Tag-xPSM [4]; Cellulose,2
CTNPNMHHC [SEQ ID NO:35],"Number of times sequence was found, Round 1 xPSM",xPSM [2],0
CTNSNMHHC [SEQ ID NO:22],"Number of times sequence was found, Round 3",Tag-xPSM [4]; Agarose,1
same,"Number of times sequence was found, Round 4",Tag-xPSM [4]; Agarose,0/0
same,"Number of times sequence was found, Round 5",Tag-xPSM [4]; Agarose,0/0
same,"Number of times sequence was found, Round 3",Tag-xPSM [4]; Cellulose,0
same,"Number of times sequence was found, Round 4",Tag-xPSM [4]; Cellulose,0/0
same,"Number of times sequence was found, Round 5",Tag-xPSM [4]; Cellulose,0/0
CTPLSPRYC [SEQ ID NO:12],"Number of times sequence was found, Round 3",Tag-xPSM [4]; Agarose,0/0
same,"Number of times sequence was found, Round 4",Tag-xPSM [4]; Agarose,0
same,"Number of times sequence was found, Round 5",Tag-xPSM [4]; Agarose,0/0
same,"Number of times sequence was found, Round 3",Tag-xPSM [4]; Cellulose,0/0
same,"Number of times sequence was found, Round 4",Tag-xPSM [4]; Cellulose,1
same,"Number of times sequence was found, Round 5",Tag-xPSM [4]; Cellulose,0/0
CTSNNSAIC [SEQ ID NO:27],"Number of times sequence was found, Round 3",Tag-xPSM [4]; Agarose,0
same,"Number of times sequence was found, Round 4",Tag-xPSM [4]; Agarose,0/0
same,"Number of times sequence was found, Round 5",Tag-xPSM [4]; Agarose,0/0
same,"Number of times sequence was found, Round 3",Tag-xPSM [4]; Cellulose,1
same,"Number of times sequence was found, Round 4",Tag-xPSM [4]; Cellulose,0/0
same,"Number of times sequence was found, Round 5",Tag-xPSM [4]; Cellulose,0/0
CTYNPSRWC [SEQ ID NO:29],"Number of times sequence was found, Round 1 xPSM",xPSM [2],7
